Target: T1, 人源PDGFRβ全长 (human PDGFRβ, full length, on cells) (human, UniProt P09619 33-1106)
T1 construct: whole, on cells; also called HEK293-hPDGFRβ稳定细胞株; 细胞表面的PDGFRβ
Test: flow cytometry on HEK293-hPDGFRβ cells, Alexa488 secondary antibody

T1 sequence (P09619 33-1106): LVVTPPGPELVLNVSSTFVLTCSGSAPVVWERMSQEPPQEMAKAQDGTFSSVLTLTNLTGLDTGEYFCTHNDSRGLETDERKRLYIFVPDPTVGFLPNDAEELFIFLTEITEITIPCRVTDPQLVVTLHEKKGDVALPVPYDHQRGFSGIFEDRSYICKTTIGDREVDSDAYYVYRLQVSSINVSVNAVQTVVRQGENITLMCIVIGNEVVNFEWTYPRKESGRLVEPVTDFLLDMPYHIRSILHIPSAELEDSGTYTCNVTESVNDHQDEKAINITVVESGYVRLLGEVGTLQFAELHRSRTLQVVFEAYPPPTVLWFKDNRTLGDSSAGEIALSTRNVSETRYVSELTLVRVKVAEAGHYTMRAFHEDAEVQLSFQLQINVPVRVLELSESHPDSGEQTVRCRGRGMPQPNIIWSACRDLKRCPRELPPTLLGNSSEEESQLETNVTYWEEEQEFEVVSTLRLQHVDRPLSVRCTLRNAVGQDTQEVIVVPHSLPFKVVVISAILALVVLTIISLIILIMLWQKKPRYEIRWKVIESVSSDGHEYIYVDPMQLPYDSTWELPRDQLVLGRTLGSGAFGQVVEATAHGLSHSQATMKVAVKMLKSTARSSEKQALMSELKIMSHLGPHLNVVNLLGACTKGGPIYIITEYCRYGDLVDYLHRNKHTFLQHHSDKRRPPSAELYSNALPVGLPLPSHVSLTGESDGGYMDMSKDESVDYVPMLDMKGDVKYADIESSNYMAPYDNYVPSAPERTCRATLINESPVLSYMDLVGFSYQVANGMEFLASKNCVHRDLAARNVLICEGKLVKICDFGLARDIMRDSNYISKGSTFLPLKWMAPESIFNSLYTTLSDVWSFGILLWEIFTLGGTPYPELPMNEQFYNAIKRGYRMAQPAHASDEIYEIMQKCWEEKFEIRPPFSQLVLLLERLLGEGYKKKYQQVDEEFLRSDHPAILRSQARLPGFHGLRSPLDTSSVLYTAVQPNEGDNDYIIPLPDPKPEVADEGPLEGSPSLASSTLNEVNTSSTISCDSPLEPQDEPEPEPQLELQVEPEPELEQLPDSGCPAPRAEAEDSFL

B1: 39E10E12B3 (antibody, V domains shown)
VH: EVQLVESGGGVVQPGRSLRLSCAASGFTFSSYGMHWVRQAPGKGLEWVAVIWYDGSNKYYADSVKGRFTISRDNSKNTLYLQMNSLRAEDTAVYYCAVTGDVDYWGQGTLVTVSS
notes: Heavy-chain-only monoclonal antibody (no light chain), purified from a hybridoma made from HCAb transgenic mice; also called 重链抗体39E10E12B3; PDGFRβ抗体
- binding result: binds
